The source of these data is patent US20260258115A1.

Where a chain is given by its changes, count along the chain named. Some results are limits rather than exact numbers.

The target in test [1] is RSV postfusion F (postF), F deltaFP (Respiratory Syncytial Virus). The test can be described thus: BLI, IgG on anti-human IgG sensor, 100 nM antigen. (In general: BLI is a label-free optical method that tracks binding on a fibre tip over time.)
Test [2] deals with RSV prefusion F (preF), DS-Cav1 (Respiratory Syncytial Virus). The test can be described thus: BLI, IgG on anti-human IgG sensor, 100 nM antigen.
The target in test [3] is Respiratory Syncytial Virus fusion glycoprotein (RSV F) on RSV-A2 virus (Respiratory Syncytial Virus subtype A (RSV-A2)). The test can be described thus: cell-based or functional assay.

B1: ADI-41186 (antibody, V domains shown)
VH: EVQLLESGAEVKKPGESLKISCKGSGYSFSSYWIAWVRQMPGKGLEWMGIIYPSDSDTKYSPSFQGQVTISADKSISTAYLQWSSLKASDTAMYYCARQAGIQRPLDYWGQGTLVTVSS
VL: EIVMTQSPATLSVSPGERATLSCRASQSVRSNLAWYQQKPGQAPRLLIYDASTRATGISARFSGSGSGTEFTLTISSLQSEDFAVYYCQQFHNWPPYTFGQGTKVEIK
The term Kd denotes the concentration at which binding is half-saturated. Read a low Kd as higher affinity. Take B1: the values for the equilibrium dissociation constant (Kd) in test [1] and in test [2] were 0.703 nM and 3.01 nM, respectively. Further, the Neutralization IC50 (RSV subtype A) in test [3] is above 25 µg/mL.

B2: ADI-41185 (antibody, V domains shown)
VH: QVQLQQWGAGLLKPSETLSLTCAVYGGSFSSYYYSWIRQPPGKGLEWIGEINQSGSTNYNPSLKSRVTISVDTSKNEFSLKLSSVTAADTAVYYCARIVREFNTRWYDYYYMDVWGKGTTVTVSS
VL: DIRVTQSPATLSLSPGERATLSCRTSQSISSSYLAWYQQKFGQAPRLLIYGASSRATGIPDRFSGSGSGTDFTLTISRLEPEDFAVYYCQQYGISPPMYTFGQGTKVEIK
Consider B2, for which the values for the Kd in test [1] and in test [2] were 0.809 nM and 3.23 nM, respectively. In test [3], this molecule gave a Neutralization IC50 (RSV subtype A) above 25 µg/mL.

B3: ADI-41182 (antibody, V domains shown)
VH: QVQLVQSGAEVKKPGESLKISCQGSGYSFTSYWIGWVRQMPGKDLEWMGIIYPSDSDTRYSPSFQGQVTISVDKSINTAYLQWTSLKASDTAMYYCARCDGAVYWYFDLWGRGTLVTVSS
VL: EIVLTQSPATLSVSPGERVTLSCRASRSVSSHLAWYQQKPGQAPRLLMYGASTRATGIPARFSGSGSGTEFTLTISSLQSEDFGVYYCQQYNNWPPALTFGGGTKLEIK
Consider B3, for which the Kd is 0.462 nM in test [1] and 2.55 nM in test [2]. In test [3], this molecule yielded a Neutralization IC50 (RSV subtype A) above 25 µg/mL.

B4: ADI-41201 (antibody, V domains shown)
VH: EVQLLESGGGLVQPGGSLRLSCAASGFAFDIYSMNWVRQAPGKGLEWLSYISSRGETIYYADSVKGRFTISRDNARNSLYLQMNGLRDEDTATYYCYYYGSGISSHGGAFDYWGQGTLVTVSS
VL: DIVMTQTPATLSLSPGERATLTSRASQSVSSFLAWYQQKPGQAPRLLIYDVSNRATGVPARFSGSGSGTDFTLTISSLEPEDIAVYYCQQRNTWPAITFGQGTKVEIK
Turning to B4, the equilibrium dissociation constant (Kd) in test [1] was 0.637 nM; in test [2] it was 3.82 nM. In test [3], this molecule yielded a Neutralization IC50 (RSV subtype A) above 25 µg/mL.

B5: ADI-41173 (antibody, V domains shown)
VH: QVQLVQSGAEMKKPGSSAKVSCKASGGTLSSYAINWVRQAPGQGLEWMGGIIPIFGTTKYAPKFQDRVTITVDESTSTAYMELSSLRSEDTAVYYCSRESSTWDVAHYFDYWGQGTLVTVSS
VL: DIVMTQTPSAISASVGDRVTITCRASQGISNYLAWVQQKPGKVPKRLIYGASSLQSGVPSRFSGSGSGTEFTLTISSLQPEDFATYYCLQHNSYPYTFGQGTKVEIK
As to B5, the dissociation constant (Kd) in test [1] came out at 0.294 nM; in test [2] it was 0.315 nM. In test [3], this molecule displayed a Neutralization IC50 (RSV subtype A) of 0.08 µg/mL.

B6: ADI-41183 (antibody, V domains shown)
VH: QVQLQESGAGLVKPSETLSLTCGVYGESFSGHSWSWIRQPPGRGLEWIGEINQSGTTKYNPSLRSRVTISVDRSKNEFSLKVSSVTAADTAVYFCARYFRSFYTIGPDYYYMDVWGKGTTVTVSS
VL: EIVLTQSPSSLSASVGDRVTITCRASQNINNYLNWYQQKPGKAPRLLIYAASSLQSGVPSRFTGSGSGTDFTLTIRSLQSEDFATYYCQHSYSSSLLTFGGGTKVDIK
On to B6, for which the Kd in test [1] is 1 nM; in test [2] it was 4.08 nM. For the same molecule, in test [3], the Neutralization IC50 (RSV subtype A) is above 25 µg/mL.

B7: ADI-41179 (antibody, V domains shown)
VH: QVQLVQSGAEVKKPGSSVKISCKASGGTFSSHPISWVRQAPGQGLEWMGRIVPIFGIANYAQKFQGRVTMIADKSTNTAYMELSNLRSEDTAVYYCANPVYDSSGFQWGQGTLVTVSS
VL: QPVLTQPRSVSGSPGQSVTISCTGTSGDGGFYNYVSWYQQHPGKTPKLMIYDVDQRPSGVPDRFSGSKSGNTASLTISGLQAEDEADYYCCSYPGNPLYVFGTGTKVTVL
As to B7, the Kd in test [1] worked out at 0.342 nM; in test [2], 0.948 nM. This molecule also returned a Neutralization IC50 (RSV subtype A) in test [3] above 25 µg/mL.

B8: ADI-41202 (antibody, V domains shown)
VH: B7 VH with Q6E, N98S
VL: B7 VL with P2S, V3A, T5I, V107L
For the molecule B8, the values for the Kd in test [1] and in test [2] were 0.333 nM and 1.12 nM, respectively. In test [3], this molecule displayed a Neutralization IC50 (RSV subtype A) above 25 µg/mL.

B9: ADI-41175 (antibody, V domains shown)
VH: EVQLLESGGGVVQPGRSLRLSCATSGFTFSSYGMHWVRQAPGKGLEWVAVIYYEGSNKYYGDSVKGRFTISRDNSKSTLYLQMNRLRAEDTAVYYCARRPAGGFDYWGPGTLVTVSS
VL: EIVMTQSPLSLPVTPGEPASISCRSSQNLLNSNGYNYLDWYLQKPGQSPQLLIYLGSNRASGVPDRFSGSGSGTDFTLKISRVEAEDVGVYYCMQALQTPYTFGQGTKLEIK
As for B9, the Kd was 1.07 nM in test [1] and 4.25 nM in test [2]. Besides, the Neutralization IC50 (RSV subtype A) in test [3] was above 25 µg/mL.

B10: ADI-41190 (antibody, V domains shown)
VH: QVQLVQSGAEVKKPGASVKVSCKAFGYTFRSYDMQWVRQAPGQRLEWMGWINAVNGDTKYSQKFQGRVTITRDTSATTVYMELSSLRSEDTAVYYCARWGRFWNSRSLDYYAMDVWGQGTTVTVSS
VL: DIVMTQSPGTLSLSPGERATLSCRASQSISSSYLVWYQHKPGQAPRLLIYGASTRATDIPDRFSGSGSGTDFTLTISRLEPEDFAVYYCQQYGSSPLTFGQGTRLEIK
Consider B10, for which the Kd in test [1] was found to be 0.971 nM; in test [2], 2.29 nM. This molecule also yielded a Neutralization IC50 (RSV subtype A) in test [3] above 25 µg/mL.

B11: ADI-41181 (antibody, V domains shown)
VH: QVQLVQSGAEVKKPGSSVKVSCKASGGSFSSYTLNWVRQAPGQGLEWMGRFVPIVGIANYAQKFQGRVTITADKSTSTVYMELSSLRSEDTAVYYCATAPTAYCSGDCYSLFDPWGQGTLVTVSS
VL: QSVLIQPASVSGSPGQSITISCTGISSDVGSYNLVSWYQQHPGKAPKLIIYEVNKRPSGVSNRFSGSKSGNTASLTISGLQAEDEADYYCCSYAVSRTSLYVFGTGTKVTVL
For the molecule B11, the equilibrium dissociation constant (Kd) in test [1] turned out to be 0.936 nM; in test [2], 1.95 nM. This molecule showed a Neutralization IC50 (RSV subtype A) in test [3] above 25 µg/mL.

B12: ADI-41184 (antibody, V domains shown)
VH: EVQLLETGGGLVQPGGSLRLSCAASGFTFSSYDMNWVRQAPGKGLEWVSTISGSGGPTYYAGSVKGRFTISRDNSKNTLYLQMNSLRADDTAVYYCAKAQLYDTSGYYLYYFDYWGQGTLVTVSS
VL: DIRMTQSPSSLSASVGDRVTITCRASQRITSYLNWYQQKPGKAPKLLIYAASSLQSGVPSRFSGSGSGTDFTLTISSLQPEDFATYFCQQSYSTSFTFGPGTKVDIK
Consider B12, for which the dissociation constant Kd in test [1] amounted to 0.532 nM; in test [2] it was 2.85 nM. This molecule returned a Neutralization IC50 (RSV subtype A) in test [3] above 25 µg/mL.

B13: ADI-41189 (antibody, V domains shown)
VH: QVQLVESGGGLVKPGGSLRLSCAASGFTFSSYSMNWVRQAPGKGLEWVSSMSSSSGYIDYADSVKGRFTISRDNAKNSLYLQMNSLRVEDTAVYYCARRNAVVVPSLMVVADYYYGMDVWGQGTTVTVSS
VL: QSVLTQPPSVSGAPGQRVTISCTGSSSNIGAGYDVHWYQQLPGTAPKLLIYGNSNRPSGVPDRFSGSKSGTSASLAITGLQAEDEADYYCQSYDTSLSGPGYVFGTGTKLTVL
Consider B13, for which the dissociation constant (Kd) in test [1] amounted to 0.608 nM; in test [2], 2.86 nM. Also, the Neutralization IC50 (RSV subtype A) in test [3] was above 25 µg/mL.

B14: ADI-41196 (antibody, V domains shown)
VH: EVQLVESGGGLVQPGGSLRLSCIVSGFPFNTYAMSWVRQAPGKGLEWVSVVSASGGNTDYADSVKGRFTISRDNSKKTLYLQMNSLRAEDTAVYYCARTESNTLAPSWSGRYVTDWYFDLWGRGTLVTVSS
VL: EIVMTQSPSSLSASVGDRVTITCRASQSISSFLNWYQQKPGKAPKLLISAASSLQSGVPSRFSGSGSGTDFTLTISSLQPEDFATYYCQQSYSIPTFGQGTRLEIK
In the case of B14, the figures for the Kd in test [1] and in test [2] were 0.595 nM and 2.92 nM, respectively. In test [3], the Neutralization IC50 (RSV subtype A) is above 25 µg/mL.

B15: ADI-41197 (antibody, V domains shown)
VH: QVQLVQSGAEVKKPGASVKVSCKASGYTFSGYYMHWVRQAPGQGLEWVGRINPKSGDTVYAQKFQGRVTMTRDTSISTAYMELSRLISDDTAKYYCARQEDHYYGSGNFYNSFDFWGQGTLVTVSS
VL: ETTLTQSPSSLSASVGDRVTITCRASQSISSNLNWYQQKPGKAPKLLIYGASTLQSGVPSRFSGSGSGTDFTLTISSLQPEDLATYYCQQSYSNPGKTFGQGTKVDIK
With B15, the Kd is 0.531 nM in test [1] and 0.795 nM in test [2]. The Neutralization IC50 (RSV subtype A) in test [3] is 0.27 µg/mL.

B16: ADI-41200 (antibody, V domains shown)
VH: EVQLLESGGGLVKPGGSLRLSCAASGLTFSDHDMSWVRQAPGKGLEWVSGIGGSGSNTYYAGSVKGRFTISRDNSKNTLYLQMDSLRVEDTAVYYCAKDPYGDYRDYYGMDVWGQGTTVTVSS
VL: DIVLTQTPFSLPVTPGEPASISCRSSQSLLKSNGYNYLDWFLQKPGQSPQLLIYLGSNRASGVPDRFSGSGSGTDFTLKISRVEAEDVGVYYCMQTLQALYTFGQGTKVEIK
For the molecule B16, the dissociation constant Kd in test [1] turned out to be 0.318 nM; in test [2], 0.334 nM. In test [3], this molecule gave a Neutralization IC50 (RSV subtype A) above 25 µg/mL.

B17: ADI-41171 (antibody, V domains shown)
VH: EVQLVESGPGLVKPSQTLSLTCTVSGGSISSGGDYWSWVRQRPGKGLEWIGYIYNSGSGYYNPSLKNRVSMSMHTSRNQFSLRLSSVTAADTAFYYCARDPFYRSGGIHYFDYWGQGALVTVSS
VL: DIVLTQTPGTLSLSPGEGATLSCRASPSVGSTSLAWYQQKPGQAPRLLIYGASSRATGIPDRFSGSGSGTDFTLTISRLEPEDFAVYYCQQDGGLPITFGLGTRLEIK
B17: the values for the Kd in test [1] and in test [2] were 4.26 nM and 9.8 nM, respectively. For the same molecule, in test [3], the Neutralization IC50 (RSV subtype A) was above 25 µg/mL.
